Consider one substance from patent publication US20240325557A1, “TREATMENT OF CANCER” (INNATE PHARMA, priority 2020, published 2024).

The target of assay [1] is HER2 on SUM185 and SUM190 human breast cancer tumor cells (human) (UniProt P04626). The experiment in a line: flow cytometry on SUM185 cells, antibody at 10 µg/ml. On the technique in general: Flow cytometry measures light scatter and fluorescence of single cells or particles in a stream.
Assay [2] shares this target. Nature of the assay: flow cytometry on SUM190 cells, antibody at 10 µg/ml.

Regarding “Anti-Her2 antibody trastuzumab modified as human IgG1 isotype containing a N297Q mutation”, the MFI (median fluorescence units) in assay [1] worked out at 2880; in assay [2] it was 1780.
